Molecular target: T1, PVR-Ig (extracellular portion of human PVR fused to the Fc domain of human IgG1) (human, UniProt P15151 21-343)
T1 construct: PVR (poliovirus receptor), human ligand of TIGIT, extracellular portion; source: HEK293T, transfected (pIRESpuro3), secreted, purified (HiTrap Protein G HP)
T1 sequence: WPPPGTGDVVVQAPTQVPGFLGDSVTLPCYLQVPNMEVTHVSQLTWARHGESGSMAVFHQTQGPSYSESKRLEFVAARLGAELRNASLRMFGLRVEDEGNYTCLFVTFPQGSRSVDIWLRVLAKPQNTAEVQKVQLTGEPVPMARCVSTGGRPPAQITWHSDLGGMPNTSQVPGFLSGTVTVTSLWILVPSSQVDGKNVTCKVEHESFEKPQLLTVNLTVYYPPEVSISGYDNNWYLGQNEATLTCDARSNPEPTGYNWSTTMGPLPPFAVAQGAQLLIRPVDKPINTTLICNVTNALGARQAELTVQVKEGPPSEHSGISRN
Test: MST; RED-NHS labeled TIGIT-Ig at constant level, unlabeled Ig-fusion proteins serially diluted in 1x PBS; Monolith NT.115, 20% MST power, 95% LED power, standard capillaries, 25 °C
Settings: both partners purified

B1: TIGIT-Ig (extracellular ligand-binding domain of human TIGIT fused to the Fc domain of human IgG1) (Fc fusion)
chain: MMTGTIETTGNISAEKGGSIILQCHLSSTTAQVTQVNWEQQDQLLAICNADLGWHISPSFKDRVAPGPGLGLTLQSLTVNDTGEYFCIYHTYPDGTYTGRIFLEVLESSVAEHGARFQIP
modifications: fluorescently labeled with the Monolith NT Protein Labeling Kit RED-NHS
notes: also called human TIGIT-Ig; T cell immunoreceptor with Ig and ITIM domains; source: HEK293T, transfected (pIRESpuro3), secreted, purified (HiTrap Protein G HP)
- binding result: binds

Source: paper PMC9072312, “Candida albicans evades NK cell elimination via binding of Agglutinin-Like Sequence proteins to the checkpoint receptor TIGIT” (Nature Communications, 2022)
